In the supplement of paper PMC5998384:

Columns and labels:
HeLa Kyoto [1] = assay: solubility in G1/S (NP-40 vs SDS abundance) (log2 ratio); higher = more soluble; conditions: cell cycle stage: G1/S
HeLa Kyoto [2] = assay: melting temperature (median over replicates), in situ; higher = more thermally stable
HeLa Kyoto [3] = assay: solubility change mitosis vs G1/S (difference of NP-40 vs SDS log2 ratios) (log2 ratio difference); higher = more soluble in mitosis
HeLa Kyoto [4] = assay: thermal stability score vs G1/S (z-score of summed log2 fold changes over temperatures); higher = more thermally stable than in G1/S
[5] = cell cycle stage: early G1 (4.5 h after nocodazole release)
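Throughout, for melting temperature (median over replicates), in situ: HeLa Kyoto cells synchronized by double thymidine or nocodazole block, proteins quantified by TMT10plex mass spectrometry, three independent biological replicates.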
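Throughout, for solubility change mitosis vs G1/S (difference of NP-40 vs SDS log2 ratios): synchronized HeLa Kyoto cells (double thymidine block for G1/S, nocodazole release for mitosis), protein amounts in NP-40 versus SDS lysates quantified by mass spectrometry, three biological replicates.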
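Throughout, for solubility in G1/S (NP-40 vs SDS abundance): HeLa Kyoto cells arrested at G1/S by double thymidine block, proteins quantified by TMT10plex mass spectrometry in mild NP-40 versus SDS extracts, three biological replicates.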
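Throughout, for thermal stability score vs G1/S (z-score of summed log2 fold changes over temperatures): synchronized HeLa Kyoto cells, proteins quantified by TMT10plex mass spectrometry, three biological replicates, mitosis taken 0.5 h after nocodazole release, G1/S directly after double thymidine block.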

Substance: MDSRYNSTAGIGDLNQLSAAIPATRVEVSVSCRNLLDRDTFSKSDPICVLYVQGVGNKEWREFGRTEVIDNTLNPDFVRKFILDYFFEERENLRFDLYDVDSKSPNLSKHDFLGQVFCTLGEIVGSQGSRLEKPIVGIPGKKCGTIILTAEELNCCRDAVLMQFCANKLDKKDFFGKSDPFLVFYRSNEDGSFTICHKTEVVKNTLNPVWQAFKISVRALCNGDYDRTIKVEVYDWDRDGSHDFIGEFTTSYRELSRGQSQFNVYEVVNPKKKGKKKKYTNSGTVTLLSFLVETEVSFLDYIKGGTQINFTVAIDFTASNGNPAQPTSLHYMNPYQLNAYGMALKAVGEIVQDYDSDKMFPALGFGAKLPPDGRISHEFALNGNPQNPYCDGIEGVMEAYYRSLKSVQLYGPTNFAPVINHVARYASSVKDGSQYFVLLIVTDGVISDMAQTKESIVNASKLPMSIIIVGVGPAEFDAMVELDGDDVRVSSRGKYAERDIVQFVPFRDYIDRSGNHILSMARLAKDVLAEIPEQFLSYMRARGIKPSPAPPPYTPPTHVLQTQI [CPNE8]
- solubility in G1/S (log2) (HeLa Kyoto [1]): -1.4
- melting temperature (HeLa Kyoto [2]; cell cycle stage: G1/S): 54.1 °C
- melting temperature (HeLa Kyoto [2]; cell cycle stage: mitosis): 53 °C
- solubility change mitosis (log2) (HeLa Kyoto [3]): -0.135
- thermal stability score (HeLa Kyoto [4]; [5]): 1.74
- thermal stability score (HeLa Kyoto [4]; cell cycle stage: mitosis): 5.6

Substance: MPSASCDTLLDDIEDIVSQEDSKPQDRHFVRKDVVPKVRRRNTQKYLQEEENSPPSDSTIPGIQKIWIRTWGCSHNNSDGEYMAGQLAAYGYKITENASDADLWLLNSCTVKNPAEDHFRNSIKKAQEENKKIVLAGCVPQAQPRQDYLKGLSIIGVQQIDRVVEVVEETIKGHSVRLLGQKKDNGRRLGGARLDLPKIRKNPLIEIISINTGCLNACTYCKTKHARGNLASYPIDELVDRAKQSFQEGVCEIWLTSEDTGAYGRDIGTNLPTLLWKLVEVIPEGAMLRLGMTNPPYILEHLEEMAKILNHPRVYAFLHIPVQSASDSVLMEMKREYCVADFKRVVDFLKEKVPGITIATDIICGFPGETDQDFQETVKLVEEYKFPSLFINQFYPRPGTPAAKMEQVPAQVKKQRTKDLSRVFHSYSPYDHKIGERQQVLVTEESFDSKFYVAHNQFYEQVLVPKNPAFMGKMVEVDIYESGKHFMKGQPVSDAKVYTPSISKPLAKGEVSGLTKDFRNGLGNQLSSGSHTSAASQCDSASSRMVLPMPRLHQDCALRMSVGLALLGLLFAFFVKVYN [CDKAL1]
- solubility in G1/S (log2) (HeLa Kyoto [1]): 0.0175
- melting temperature (HeLa Kyoto [2]; cell cycle stage: G1/S): 51.2 °C
- melting temperature (HeLa Kyoto [2]; cell cycle stage: mitosis): 50.7 °C
- solubility change mitosis (log2) (HeLa Kyoto [3]): -0.00551
- thermal stability score (HeLa Kyoto [4]; [5]): -2.9
- thermal stability score (HeLa Kyoto [4]; cell cycle stage: mitosis): -1

Substance: MFAKAFRVKSNTAIKGSDRRKLRADVTTAFPTLGTDQVSELVPGKEELNIVKLYAHKGDAVTVYVSGGNPILFELEKNLYPTVYTLWSYPDLLPTFTTWPLVLEKLVGGADLMLPGLVMPPAGLPQVQKGDLCAISLVGNRAPVAIGVAAMSTAEMLTSGLKGRGFSVLHTYQDHLWRSGNKSSPPSIAPLALDSADLSEEKGSVQMDSTLQGDMRHMTLEGEEENGEVHQAREDKSLSEAPEDTSTRGLNQDSTDSKTLQEQMDELLQQCFLHALKCRVKKADLPLLTSTFLGSHMFSCCPEGRQLDIKKSSYKKLSKFLQQMQQEQIIQVKELSKGVESIVAVDWKHPRITSFVIPEPSPTSQTIQEGSREQPYHPPDIKPLYCVPASMTLLFQESGHKKGSFLEGSEVRTIVINYAKKNDLVDADNKNLVRLDPILCDCILEKNEQHTVMKLPWDSLLTRCLEKLQPAYQVTLPGQEPIVKKGRICPIDITLAQRASNKKVTVVRNLEAYGLDPYSVAAILQQRCQASTTVNPAPGAKDSLQVQIQGNQVHHLGWLLLEEYQLPRKHIQGLEKALKPGKKK [EIF2D]
- solubility in G1/S (log2) (HeLa Kyoto [1]): 0.234
- melting temperature (HeLa Kyoto [2]; cell cycle stage: G1/S): 48.3 °C
- melting temperature (HeLa Kyoto [2]; cell cycle stage: mitosis): 48.3 °C
- solubility change mitosis (log2) (HeLa Kyoto [3]): -0.0853
- thermal stability score (HeLa Kyoto [4]; [5]): 0.861
- thermal stability score (HeLa Kyoto [4]; cell cycle stage: mitosis): 1.5

Substance: MAGSRQRGLRARVRPLFCALLLSLGRFVRGDGVGGDPAVALPHRRFEYKYSFKGPHLVQSDGTVPFWAHAGNAIPSSDQIRVAPSLKSQRGSVWTKTKAAFENWEVEVTFRVTGRGRIGADGLAIWYAENQGLEGPVFGSADLWNGVGIFFDSFDNDGKKNNPAIVIIGNNGQIHYDHQNDGASQALASCQRDFRNKPYPVRAKITYYQNTLTVMINNGFTPDKNDYEFCAKVENMIIPAQGHFGISAATGGLADDHDVLSFLTFQLTEPGKEPPTPDKEISEKEKEKYQEEFEHFQQELDKKKEEFQKGHPDLQGQPAEEIFESVGDRELRQVFEGQNRIHLEIKQLNRQLDMILDEQRRYVSSLTEEISKRGAGMPGQHGQITQQELDTVVKTQHEILRQVNEMKNSMSETVRLVSGMQHPGSAGGVYETTQHFIDIKEHLHIVKRDIDNLVQRNMPSNEKPKCPELPPFPSCLSTVHFIIFVVVQTVLFIGYIMYRSQQEAAAKKFF [LMAN1]
- solubility in G1/S (log2) (HeLa Kyoto [1]): 0.173
- melting temperature (HeLa Kyoto [2]; cell cycle stage: G1/S): 53.3 °C
- melting temperature (HeLa Kyoto [2]; cell cycle stage: mitosis): 53.5 °C
- solubility change mitosis (log2) (HeLa Kyoto [3]): -0.0873
- thermal stability score (HeLa Kyoto [4]; [5]): 3.5
- thermal stability score (HeLa Kyoto [4]; cell cycle stage: mitosis): 5.07

Substance: CPS1
- solubility in G1/S (log2) (HeLa Kyoto [1]): 0.0669
- melting temperature (HeLa Kyoto [2]; cell cycle stage: G1/S): 53.1 °C
- melting temperature (HeLa Kyoto [2]; cell cycle stage: mitosis): 53.2 °C
- solubility change mitosis (log2) (HeLa Kyoto [3]): -0.13
- thermal stability score (HeLa Kyoto [4]; [5]): -0.953
- thermal stability score (HeLa Kyoto [4]; cell cycle stage: mitosis): -3.38

Substance: MAAQKINEGLEHLAKAEKYLKTGFLKWKPDYDSAASEYGKAAVAFKNAKQFEQAKDACLREAVAHENNRALFHAAKAYEQAGMMLKEMQKLPEAVQLIEKASMMYLENGTPDTAAMALERAGKLIENVDPEKAVQLYQQTANVFENEERLRQAVELLGKASRLLVRGRRFDEAALSIQKEKNIYKEIENYPTCYKKTIAQVLVHLHRNDYVAAERCVRESYSIPGFNGSEDCAALEQLLEGYDQQDQDQVSDVCNSPLFKYMDNDYAKLGLSLVVPGGGIKKKSPATPQAKPDGVTATAADEEEDEYSGGLC [NAPG]
- solubility in G1/S (log2) (HeLa Kyoto [1]): 0.528
- melting temperature (HeLa Kyoto [2]; cell cycle stage: G1/S): 49.6 °C
- melting temperature (HeLa Kyoto [2]; cell cycle stage: mitosis): 49.9 °C
- solubility change mitosis (log2) (HeLa Kyoto [3]): 0.178
- thermal stability score (HeLa Kyoto [4]; [5]): -0.512
- thermal stability score (HeLa Kyoto [4]; cell cycle stage: mitosis): 0.117
